Results: patent US20180298360, “CAS9 VARIANTS AND METHODS OF USE THEREOF” (The Regents of the University of California, published 2018)

Target: T1, ΔHNH-Cas9 (ΔHNH-4; T769-K918 replaced by GGSGGS) (Streptococcus pyogenes)
T1 chain: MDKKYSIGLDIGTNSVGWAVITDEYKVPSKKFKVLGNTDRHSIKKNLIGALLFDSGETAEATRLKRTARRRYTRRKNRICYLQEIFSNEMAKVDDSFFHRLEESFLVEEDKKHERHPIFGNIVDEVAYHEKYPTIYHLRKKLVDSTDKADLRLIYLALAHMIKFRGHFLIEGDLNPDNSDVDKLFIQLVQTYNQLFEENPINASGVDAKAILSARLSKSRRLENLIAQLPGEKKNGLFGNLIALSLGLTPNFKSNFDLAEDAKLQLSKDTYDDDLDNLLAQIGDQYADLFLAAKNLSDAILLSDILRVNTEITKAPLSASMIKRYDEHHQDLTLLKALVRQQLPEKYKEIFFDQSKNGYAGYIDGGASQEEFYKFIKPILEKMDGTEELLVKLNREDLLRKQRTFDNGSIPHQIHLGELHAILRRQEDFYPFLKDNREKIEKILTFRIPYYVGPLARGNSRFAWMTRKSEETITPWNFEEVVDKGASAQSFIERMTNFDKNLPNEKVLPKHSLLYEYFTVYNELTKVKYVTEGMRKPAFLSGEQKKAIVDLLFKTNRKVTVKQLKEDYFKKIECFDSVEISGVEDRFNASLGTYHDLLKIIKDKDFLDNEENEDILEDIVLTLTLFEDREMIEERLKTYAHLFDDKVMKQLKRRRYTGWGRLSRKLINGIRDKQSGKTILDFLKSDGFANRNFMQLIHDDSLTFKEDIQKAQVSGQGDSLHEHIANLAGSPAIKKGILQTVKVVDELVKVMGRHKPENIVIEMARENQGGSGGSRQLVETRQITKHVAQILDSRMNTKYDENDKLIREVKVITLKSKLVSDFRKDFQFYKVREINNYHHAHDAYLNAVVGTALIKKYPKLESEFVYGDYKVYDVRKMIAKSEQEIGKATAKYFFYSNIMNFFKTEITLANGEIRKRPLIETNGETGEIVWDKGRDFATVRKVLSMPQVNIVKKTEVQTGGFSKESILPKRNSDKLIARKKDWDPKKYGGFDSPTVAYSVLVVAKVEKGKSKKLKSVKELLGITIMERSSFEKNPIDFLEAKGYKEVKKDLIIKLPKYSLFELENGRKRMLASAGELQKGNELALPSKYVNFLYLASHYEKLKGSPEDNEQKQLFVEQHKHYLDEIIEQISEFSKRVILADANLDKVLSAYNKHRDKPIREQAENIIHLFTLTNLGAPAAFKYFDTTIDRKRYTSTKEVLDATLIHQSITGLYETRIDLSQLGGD
Assay: EMSA; PAM TGG; 5 mM MgCl2, 100 mM KCl, pH 7.5, 50 ug/mL heparin, room temperature, 100 nM sgRNA
Conditions: tags: N-terminal His10-MBP, TEV protease treated; label: 5'-radiolabel; single-guide RNA
Protocol: Binding reactions (15 μL) were performed at room temperature in Reaction Buffer supplemented with 50 μg/mL heparin using <0.1 nM radiolabeled dsDNA substrates. Reactions were resolved by 8% native polyacrylamide gel electrophoresis (0.5×TBE, 5 mM MgCl₂) for 1.5-2 hr at 4° C. in a running buffer containing 0.5×TBE and 5 mM MgCl₂. Reactions were visualized by phosphorimaging (GE Healthcare).
Reactions were resolved by 8% native polyacrylamide gel electrophoresis. […] Solid lines represent fits from binding isotherms.

B1: sgRNA (bacteriophage target) ; 55-bp DNA substrate (ssRNA ; dsDNA)
RNA: GACGCAUAAAGAUGAGACGCGUUUUAGAGCUAUGCUGUUUUGGAAACAAAACAGCAUAGCAAGUUAAAAUAAGGCUAGUCCGUUAUCAACUUGAAAAAGUGGCACCGAGUCGGUGCUUUUUUUGGAUC
DNA 1: AGCAGAAATCTCTGCTGACGCATAAAGATGAGACGCTGGAGTACAAACGTCAGCT
DNA 2: AGCTGACGTTTGTACTCCAGCGTCTCATCTTTATGCGTCAGCAGAGATTTCTGCT
Kd: 1.2 nM
